Publication doi:10.1101/2025.03.03.641048

Target: IE-3 fragment antigen-binding (Fab) region, recombinant, labelled
Test: MST

fold higher affinity than MBP-mZP2(T103-Q138): 30 fold
B1: mouse ZP2 N-terminal ZP-N1 domain (mZP2-N1), His-tagged (domain or fragment)
chain: VSLPQSENPAFPGTLICDKDEVRIEFSSRFDMEKWNPSVVDTLGSEILNCTYALDLERFVLKFPYETCTIKVVGGYQVNIRVGDTTTDVRYKDDMYHFFCPAIQ
